According to doi:10.1101/2024.10.31.621230 (bioRxiv, 2024):

B1: LamB (natural protein, UniProt P02943 1-446, looked up)
chain: MMITLRKLPLAVAVAAGVMSAQAMAVDFHGYARSGIGWTGSGGEQQCFQTTGAQSKYRLGNECETYAELKLGQEVWKEGDKSFYFDTNVAYSVAQQNDWEATDPAFREANVQGKNLIEWLPGSTIWAGKRFYQRHDVHMIDFYYWDISGPGAGLENIDVGFGKLSLAATRSSEAGGSSSFASNNIYDYTNETANDVFDVRLAQMEINPGGTLELGVDYGRANLRDNYRLVDGASKDGWLFTAEHTQSVLKGFNKFVVQYATDSMTSQGKGLSQGSGVAFDNEKFAYNINNNGHMLRILDHGAISMGDNWDMMYVGMYQDINWDNDNGTKWWTVGIRPMYKWTPIMSTVMEIGYDNVESQRTGDKNNQYKITLAQQWQAGDSIWSRPAIRVFATYAKWDEKWGYDYTGNADNNANFGKAVPADFNGGSFGRGDSDEWTFGAQMEIWW
modifications: 35S-methionine
notes: LamB, the 18-stranded outer membrane protein used as a model substrate; Gunasinghe et al., 2018; Thewasano et al., 2023) for the substrate constructs; also called trimeric-LamB; source: in vitro translated in rabbit reticulocyte lysate with 35S-methionine, assembled into EMM
B2: OmpF (natural protein, UniProt P02931 1-362, looked up)
chain: MMKRNILAVIVPALLVAGTANAAEIYNKDGNKVDLYGKAVGLHYFSKGNGENSYGGNGDMTYARLGFKGETQINSDLTGYGQWEYNFQGNNSEGADAQTGNKTRLAFAGLKYADVGSFDYGRNYGVVYDALGYTDMLPEFGGDTAYSDDFFVGRVGGVATYRNSNFFGLVDGLNFAVQYLGKNERDTARRSNGDGVGGSISYEYEGFGIVGAYGAADRTNLQEAQPLGNGKKAEQWATGLKYDANNIYLAANYGETRNATPITNKFTNTSGFANKTQDVLLVAQYQFDFGLRPSIAYTKSKAKDVEGIGDVDLVNYFEVGATYYFNKNMSTYVDYIINQIDSDNKLGVGSDDTVAVGIVYQF
modifications: 35S-methionine
notes: OmpF, the 16-stranded outer membrane protein used as a model substrate; Gunasinghe et al., 2018; Thewasano et al., 2023) for the substrate constructs; source: in vitro translated in rabbit reticulocyte lysate with 35S-methionine, assembled into EMM

Biological target: the molecule itself
Assay: native gel or EMSA; EMM assembly assay: 35S-labelled in vitro translated substrate incubated with EMM at 30°C for 15, 45 or 90 min, EMM solubilised with 1.5% DDM, BN-PAGE, radio-imaging; homotrimer at approximately 160 kDa

| Protein | stoichiometry N |
| --- | --- |
| B1 | 3 |
| B2 | 3 |
